Each block holds one binder with its values, some of them ahead of it.
What was measured:
[1] = biological target: T1, HLA-A*0201 class I monomer of the iTopia Epitope Discovery System; assay: iTopia binding ED50
[2] = biological target: T1, HLA-A*0201 class I monomer of the …; assay: iTopia binding ED50; remark: listed apart in the source
[3] = biological target: T1, HLA-A*0201 class I monomer of the …; assay: iTopia binding ED50; remark: listed apart in the source
[4] = biological target: T1, HLA-A*0201 class I monomer of the …; assay: iTopia peptide binding (ED50)
[5] = biological target: T1, HLA-A*0201 class I monomer of the …; assay: iTopia binding ED50; remark: listed apart in the source
[6] = biological target: T1, HLA-A*0201 class I monomer of the …; assay: iTopia binding ED50; remark: listed apart in the source

B1: PSMA288-297 analog, Ala at P1 and Val at PΩ (peptide)
peptide: ALPSIPVHPV
EC50 [1]: 5970 nM

B3: PSMA288-297 analog, Leu at PΩ-1 (peptide)
peptide: GLPSIPVHLI
EC50 [3]: 586 nM

B4: PSMA288-297 analog, Leu at PΩ (peptide)
peptide: GLPSIPVHPL
EC50 [3]: 1170 nM

B5: PSMA288-297 analog, Ala at P1, Trp at P3, Val at PΩ (peptide)
peptide: ALWSIPVHPV
EC50 [4]: 494 nM

B6: PSMA288-297 analog, Met at P2 (peptide)
peptide: GMPSIPVHPI
EC50 [2]: 1070 nM

B12: PSMA288-297 analog, Ser at PΩ-1 (peptide)
peptide: GLPSIPVHSI
EC50 [3]: 447 nM

Further lines, results first:

EC50 [2]: 2410 nM
B2: PSMA288-297 analog, Val at P2 (peptide)
peptide: GVPSIPVHPI

EC50 [2]: 669 nM
B7: PSMA288-297 analog, Gln at P2 (peptide)
peptide: GQPSIPVHPI

EC50 [3]: 816 nM
B8: PSMA288-297 analog, Ala at PΩ-1 (peptide)
peptide: GLPSIPVHAI

EC50 [3]: 483 nM
B9: PSMA288-297 analog, Thr at PΩ-1 (peptide)
peptide: GLPSIPVHTI

EC50 [2]: 1330 nM | EC50 [5]: 1330 nM | EC50 [6]: 1330 nM
B10: PSMA288-297 (peptide)
peptide: GLPSIPVHPI

EC50 [6]: 1080 nM
B11: PSMA288-297 analog, Ala at P1, Val at P2, Val at PΩ (peptide)
peptide: AVPSIPVHPV

From patent US20130195901A1 (published 2013)
